# Assay results: patent US20230250148A1 (published 2023)
# Like-named read-outs stand apart in the source and are kept apart here.
# B1: insulin-Fc fusion protein of SEQ ID NO: 36 (Fc fusion)
# chain: FVNQHLCGSDLVEALALVCGERGFFYTDPTGGGPRRGIVEQCCHSICSLYQLENYCNGGGGAGGGGDCPKCPAPEMLGGPSVFIFPPKPKDTLLIARTPEVTCVVVDLDPEDPEVQISWFVDGKQMQTAKTQPREEQFNGTYRVVSVLPIGHQDWLKGKQFTCKVNNKALPSPIERTISKARGQAHQPSVYVLPPSREELSKNTVSLTCLIKDFFPPDIDVEWQSNGQQEPESKYRTTPPQLDEDGSYFLYSKLSVDKSRWQRGDTFICAVMHEALHNHYTQESLSHSPG
# modifications: native N-glycosylation site cNg-NB139
# notes: HEK293 homodimer
# B2: insulin-Fc fusion protein of SEQ ID NO: 75 (Fc fusion)
# chain: FVNQHLCGSHLVEALELVCGERGFHYGGGGGGSGGGGGIVEQCCTSTCSLDQLENYCGGGGGQGGGGQGGGGQGGGGGECPPCPAPPVAGPSVFLFPPKPKDTLMISRTPEVTCVVVDVSHEDPEVQFNWYVDGVEVHNAKTKPREEQFNSTFRVVSVLTVVHQDWLNGKEYKCKVSNKGLPAPIEKTISKTKGQPREPQVYTLPPSREEMTKNQVSLTCLVKGFYPSDIAVEWESNGQPENNYKTTPPMLDSDGSFFLYSKLTVDKSRWQQGNVFSCSVMHEALHNHYTQKSLSLSPG
# B3: insulin-Fc fusion protein of SEQ ID NO: 31 (Fc fusion)
# chain: FVNQHLCGSDLVEALALVCGERGFFYTDPTGGGPRRGIVEQCCHSICSLYQLENYCNGGGGAGGGGRCTDTPPCPVPEPLGGPSVLIFPPKPKDILRITRTPEVTCVVLDLGREDPEVQISWFVDGKEVHTAKTQSREQQFNGTYRVVSVLPIEHQDWLTGKEFKCRVNHIDLPSPIERTISKARGRAHKPSVYVLPPSPKELSSSDTVSITCLIKDFYPPDIDVEWQSNGQQEPERKHRMTPPQLDEDGSYFLYSKLSVDKSRWQQGDPFTCAVMHETLQNHYTDLSLSHSPG
# notes: HEK293; only 24% homodimer
# Columns and labels:
# [1] = target: T1, human insulin receptor (IR) on human IM-9 cells (human, UniProt P06213 28-1382); test: competition with biotinylated RHI on IM-9 cells, flow cytometry, 4 C
# T1 construct: whole, on cells; also called human IR
# Procedure: (§1) 40 µL of an IM-9 cell suspension (8×10⁶ cells/mL) was then added to each well by multichannel pipette, mixed again gently and incubated on ice for 30 min to allow competitive binding on the IR on IM-9 cells. Cells were then washed twice with 275µL of ice-cold FACS wash buffer (HBSS/2mM EDTA/0.1% Na-azide + 0.5% horse serum) by centrifuging the V-bottom plate at 3000 rpm for 3 min and aspirating the supernatant. Cells were then resuspended in 40µL of FACS staining medium containing 1:100 diluted Streptavidin-PE (Life Technologies) for 20 min on ice. Cells were then washed once with 275 µL of ice-cold FACS buffer and finally fixed with 3% paraformaldehyde for 10 min at room temp. Cells were then washed once with 275 µL of ice-cold FACS buffer and resuspended in 250µl of FACS buffer for analysis.
# In vitro insulin receptor binding for the insulin-Fc fusion proteins of SEQ ID NO: 36 and SEQ ID NO: 38 was tested according to the procedure of Example 12.
# [2] = target: T2, biotinylated recombinant human Fc(gamma)RI (human, UniProt P12314 16-288, biotinylated, site not stated); test: ELISA, fusion protein coated, biotinylated rhFc(gamma)RI in solution
# T2 construct: Bought reagent; construct not described; also called rhFc(gamma)RI; Fc(gamma) receptor I
# Procedure: (§2) The binding of insulin-Fc fusion proteins to the Fc(gamma)RI at pH 7.4 is conducted using an ELISA assay as follows using human Fc(gamma)RI (i.e., rhFc(gamma)RI). Insulin-Fc fusion proteins are diluted to 10 µg/mL in sodium bicarbonate buffer at pH 9.6 and coated on Maxisorp (Nunc) microtiter plates overnight at 4° C., after which the microplate strips are washed 5 times with PBST (PBS/0.05% Tween-20) buffer and blocked with Superblock blocking reagent (ThermoFisher). Serial dilutions of biotinylated rhFc(gamma)RI (recombinant human Fc(gamma)RI; R&D Systems) are prepared in PBST/10% Superblock buffer from 3000 ng/mL to 4.1 ng/mL and loaded at 100 µL/well onto the microplate strips coated with insulin-Fc fusion protein. The microtiter plate is incubated for 1 hour at room temperature after which time the microplate strips are washed 5 times with PBST and then loaded with 100 µL/well of streptavidin-HRP diluted 1:10000 in PBST/10% Superblock buffer. After incubating for 45 min, the microplate strips are washed again 5 times with PBST. TMB is added to reveal the bound Fc(gamma)RI proteins and is stopped with ELISA stop reagent (Boston Bioproducts). The plate is read in an ELISA plate reader at 450 nm, and the OD450 values (proportional to the binding of rhFc(gamma)RI to insulin-Fc protein) are plotted against log concentrations of rhFc(gamma)RI added to each well to generate binding curves using GraphPad Prism software. For groupings of compounds with somewhat similar curves, the OD450 at one of the higher concentrations, for instance at rhFc(gamma)RI concentrations of 3000 ng/mL, can be used to identify differences between coated insulin-Fc fusion protein compounds. […]
# [3] = target: T2, biotinylated recombinant human …; test: ELISA, fusion protein coated, biotinylated rhFc(gamma)RI at 3000 ng/mL
# Procedure: as §2
# Finally, select compounds were tested for their likelihood to interact with the immune system by measuring their Fc(gamma) receptor binding activity according to the procedure of Example 15.
# [4] = target: T3, biotinylated human complement component C1q (human, UniProt P02745 23-245; P02746 28-253; P02747 29-245, biotinylated, site not stated); test: ELISA, fusion protein coated, biotinylated human C1q at 1000 ng/mL
# T3 construct: also called biotinylated-C1q
# Procedure: The binding of insulin-Fc fusion proteins to complement component C1q at pH 7.4 was conducted using an ELISA assay as follows using human complement component C1q. Insulin-Fc fusion proteins were diluted to 10 µg/mL in sodium bicarbonate buffer at pH 9.6 and coated on Maxisorp (Nunc) microtiter plates overnight at 4° C., after which the microplate strips were washed 5 times with PBST (PBS/0.05% Tween-20) buffer and blocked with Superblock blocking reagent (ThermoFisher). […] The plate absorbance was read in an ELISA plate reader at 450 nm (OD450), and the OD450 values (proportional to the binding of complement component C1q to insulin-Fc protein) were plotted against log concentrations of complement component C1q added to each well to generate binding curves using GraphPad Prism software. […] In order to further compare differences across multiple insulin-Fc fusion proteins run at different times, the human C1q assay OD450 Ratio was calculated as the OD450 of a test insulin-Fc fusion protein compound obtained at a biotinylated-C1q concentration of 1000 ng/mL, divided by the OD450 of a reference insulin-Fc fusion protein of SEQ ID NO: 76 obtained at a biotinylated-C1q concentration of 1000 ng/mL.
# [5] = target: T1, human insulin receptor (IR) on human …; test: competition with biotinylated RHI on IM-9 cells, flow cytometry, 4 C; remark: listed apart in the source
# Procedure: as §1
# Next, the insulin-Fc fusion protein of SEQ ID NO: 76 was evaluated for the potential for in vivo bioactivity.
# [6] = target: T4, biotinylated human FcRn (human, UniProt P55899 24-297; P61769 21-119, limits assumed, biotinylated, site not stated); test: ELISA pH 5.5, fusion protein coated, biotinylated human FcRn titrated
# T4 construct: Bought reagent (Immunitrack); composition not described; also called human FcRn receptor
# Procedure: Insulin-Fc fusion proteins comprising Fc fragments were diluted to 10 µg/mL in sodium bicarbonate pH 9.6 buffer and coated in duplicate on Maxisorb ELISA plate strips for 1-2 hours at RT. The strips were then washed 5 times with PBST (PBS/0.1% Tween-20) buffer and blocked with Superblock blocking reagent (ThermoFisher). Strips for FcRn binding were then washed again 3 times with pH 5.5 MES/NaCl/Tween (50 mM MES/150mM NaCl/0.1% Tween-20) buffer before addition of the FcRn reagent (biotinylated human FcRn; Immunitrack). Serial dilutions (1:3X dilutions) of biotinylated FcRn reagent were prepared in pH 5.5 MES/NaCl/Tween/5%Superblock buffer at concentrations from 6000 ng/mL to 8.23 ng/mL and loaded at 100 µL/well using a multichannel pipettor onto the strips coated with the insulin-Fc fusion protein compounds. The assay plate was then incubated for 1.5 hours at room temperature. FcRn binding strips were washed 4 times with pH 5.5 MES/NaCl/Tween buffer and then loaded with 100 µl/well streptavidin-HRP diluted 1:10000 in pH 5.5 MES/NaCl /5%Superblock buffer. After incubating for 45 minutes, strips were washed again 5 times with pH 5.5 MES/NaCl/Tween buffer. […] The plate was read in an ELISA plate reader at a wavelength of 450 nm. […] EC50 values for each binding curve were calculated to compare between different compounds.
# [7] = target: T2, biotinylated recombinant human …; test: ELISA, fusion protein coated, biotinylated rhFc(gamma)RI at 3000 ng/mL; remark: listed apart in the source
# Procedure: The binding of insulin-Fc fusion proteins to the Fc(gamma)RI at pH 7.4 was conducted using an ELISA assay as follows using human Fc(gamma)RI (i.e., rhFc(gamma)RI). Insulin-Fc fusion proteins were diluted to 10 µg/mL in sodium bicarbonate buffer at pH 9.6 and coated on Maxisorp (Nunc) microtiter plates overnight at 4° C., after which the microplate strips were washed 5 times with PBST (PBS/0.05% Tween-20) buffer and blocked with Superblock blocking reagent (ThermoFisher). […] The plate was read in an ELISA plate reader at 450 nm, and the OD450 values (proportional to the binding of rhFc(gamma)RI to insulin-Fc protein) were plotted against log concentrations of rhFc(gamma)RI added to each well to generate binding curves using GraphPad Prism software. […] In order to compare differences across multiple insulin-Fc fusion proteins run at different times, the human Fc(gamma)RI assay OD450 Ratio was calculated as the OD450 value of a test insulin-Fc fusion protein compound obtained at a biotinylated-Fc(gamma)RI concentration of 3000 ng/mL, divided by the OD450 value of a reference insulin-Fc fusion protein of SEQ ID NO: 76 obtained at a biotinylated-Fc(gamma)RI concentration of 3000 ng/mL.
Binder,IC50 [1] [µM],OD450nm [2],OD450nm minus assay background [2],ratio to SEQ ID NO: 36 [2],OD450nm [3],OD450nm minus assay background [3],ratio to SEQ ID NO: 36 [3],OD450 Ratio (reference SEQ ID NO: 76) [4],IC50 [5] [µM],EC50 [6] [mg/L],OD450 Ratio (reference SEQ ID NO: 76) [7]
B1,0.028,0.386,0.323,1,0.428,0.371,1,,,,
B2,,,,,,,,0.309,1.73,0.462,0.045
B3,2.73,,,,,,,,,,
